Earlier results on 1 substance are cited in article PMC7421905.

The target in this series is Laminin 411 (Homo sapiens) (UniProt Q16363).
Chain of UniProt Q16363 (Q16363 25-1823, chain 1 of 3): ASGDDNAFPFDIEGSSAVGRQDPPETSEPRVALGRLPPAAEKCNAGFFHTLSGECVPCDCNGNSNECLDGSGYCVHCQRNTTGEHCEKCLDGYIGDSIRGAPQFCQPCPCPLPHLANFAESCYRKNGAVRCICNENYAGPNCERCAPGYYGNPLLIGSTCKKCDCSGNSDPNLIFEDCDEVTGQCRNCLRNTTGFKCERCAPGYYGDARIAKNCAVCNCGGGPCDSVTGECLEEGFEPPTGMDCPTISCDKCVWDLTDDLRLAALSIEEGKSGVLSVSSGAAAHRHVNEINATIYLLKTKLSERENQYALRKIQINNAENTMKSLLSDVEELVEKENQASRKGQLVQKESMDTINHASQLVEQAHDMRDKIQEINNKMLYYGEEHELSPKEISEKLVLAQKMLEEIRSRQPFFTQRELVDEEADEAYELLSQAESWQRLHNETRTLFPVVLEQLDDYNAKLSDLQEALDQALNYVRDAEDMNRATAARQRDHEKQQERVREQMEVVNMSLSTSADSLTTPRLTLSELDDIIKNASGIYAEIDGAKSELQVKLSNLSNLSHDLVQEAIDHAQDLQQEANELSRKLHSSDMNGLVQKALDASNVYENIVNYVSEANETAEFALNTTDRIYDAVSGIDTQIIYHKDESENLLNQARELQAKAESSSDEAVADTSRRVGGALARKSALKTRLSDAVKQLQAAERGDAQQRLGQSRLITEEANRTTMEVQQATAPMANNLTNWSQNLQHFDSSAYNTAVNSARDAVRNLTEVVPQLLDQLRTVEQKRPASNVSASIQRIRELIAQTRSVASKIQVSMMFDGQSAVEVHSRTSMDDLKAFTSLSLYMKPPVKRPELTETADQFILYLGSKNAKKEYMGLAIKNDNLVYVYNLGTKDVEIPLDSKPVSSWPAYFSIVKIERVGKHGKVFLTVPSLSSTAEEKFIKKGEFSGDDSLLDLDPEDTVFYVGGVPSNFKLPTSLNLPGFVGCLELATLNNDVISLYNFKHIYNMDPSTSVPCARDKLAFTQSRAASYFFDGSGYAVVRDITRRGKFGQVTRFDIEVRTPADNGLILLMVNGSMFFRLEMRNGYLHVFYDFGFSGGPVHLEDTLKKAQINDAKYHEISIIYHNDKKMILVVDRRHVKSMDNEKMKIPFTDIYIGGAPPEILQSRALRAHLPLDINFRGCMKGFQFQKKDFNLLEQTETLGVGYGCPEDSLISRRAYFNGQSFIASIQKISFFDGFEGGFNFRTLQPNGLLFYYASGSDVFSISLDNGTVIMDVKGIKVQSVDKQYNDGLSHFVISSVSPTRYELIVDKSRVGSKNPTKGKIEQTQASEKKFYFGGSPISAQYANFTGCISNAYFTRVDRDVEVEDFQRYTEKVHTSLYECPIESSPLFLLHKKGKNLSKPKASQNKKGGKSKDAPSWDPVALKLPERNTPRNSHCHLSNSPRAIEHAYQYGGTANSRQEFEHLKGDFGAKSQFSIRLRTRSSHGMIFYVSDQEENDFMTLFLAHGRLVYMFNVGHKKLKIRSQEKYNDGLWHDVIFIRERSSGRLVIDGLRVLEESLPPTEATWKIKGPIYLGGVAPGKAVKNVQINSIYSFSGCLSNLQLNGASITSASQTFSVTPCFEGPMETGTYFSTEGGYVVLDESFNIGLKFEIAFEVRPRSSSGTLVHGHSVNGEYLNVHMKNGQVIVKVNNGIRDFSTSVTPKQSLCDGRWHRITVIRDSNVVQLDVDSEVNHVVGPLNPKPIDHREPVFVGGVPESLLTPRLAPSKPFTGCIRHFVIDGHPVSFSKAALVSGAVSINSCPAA
Chain of UniProt Q16363 (P07942 22-1786, chain 2 of 3, further chain): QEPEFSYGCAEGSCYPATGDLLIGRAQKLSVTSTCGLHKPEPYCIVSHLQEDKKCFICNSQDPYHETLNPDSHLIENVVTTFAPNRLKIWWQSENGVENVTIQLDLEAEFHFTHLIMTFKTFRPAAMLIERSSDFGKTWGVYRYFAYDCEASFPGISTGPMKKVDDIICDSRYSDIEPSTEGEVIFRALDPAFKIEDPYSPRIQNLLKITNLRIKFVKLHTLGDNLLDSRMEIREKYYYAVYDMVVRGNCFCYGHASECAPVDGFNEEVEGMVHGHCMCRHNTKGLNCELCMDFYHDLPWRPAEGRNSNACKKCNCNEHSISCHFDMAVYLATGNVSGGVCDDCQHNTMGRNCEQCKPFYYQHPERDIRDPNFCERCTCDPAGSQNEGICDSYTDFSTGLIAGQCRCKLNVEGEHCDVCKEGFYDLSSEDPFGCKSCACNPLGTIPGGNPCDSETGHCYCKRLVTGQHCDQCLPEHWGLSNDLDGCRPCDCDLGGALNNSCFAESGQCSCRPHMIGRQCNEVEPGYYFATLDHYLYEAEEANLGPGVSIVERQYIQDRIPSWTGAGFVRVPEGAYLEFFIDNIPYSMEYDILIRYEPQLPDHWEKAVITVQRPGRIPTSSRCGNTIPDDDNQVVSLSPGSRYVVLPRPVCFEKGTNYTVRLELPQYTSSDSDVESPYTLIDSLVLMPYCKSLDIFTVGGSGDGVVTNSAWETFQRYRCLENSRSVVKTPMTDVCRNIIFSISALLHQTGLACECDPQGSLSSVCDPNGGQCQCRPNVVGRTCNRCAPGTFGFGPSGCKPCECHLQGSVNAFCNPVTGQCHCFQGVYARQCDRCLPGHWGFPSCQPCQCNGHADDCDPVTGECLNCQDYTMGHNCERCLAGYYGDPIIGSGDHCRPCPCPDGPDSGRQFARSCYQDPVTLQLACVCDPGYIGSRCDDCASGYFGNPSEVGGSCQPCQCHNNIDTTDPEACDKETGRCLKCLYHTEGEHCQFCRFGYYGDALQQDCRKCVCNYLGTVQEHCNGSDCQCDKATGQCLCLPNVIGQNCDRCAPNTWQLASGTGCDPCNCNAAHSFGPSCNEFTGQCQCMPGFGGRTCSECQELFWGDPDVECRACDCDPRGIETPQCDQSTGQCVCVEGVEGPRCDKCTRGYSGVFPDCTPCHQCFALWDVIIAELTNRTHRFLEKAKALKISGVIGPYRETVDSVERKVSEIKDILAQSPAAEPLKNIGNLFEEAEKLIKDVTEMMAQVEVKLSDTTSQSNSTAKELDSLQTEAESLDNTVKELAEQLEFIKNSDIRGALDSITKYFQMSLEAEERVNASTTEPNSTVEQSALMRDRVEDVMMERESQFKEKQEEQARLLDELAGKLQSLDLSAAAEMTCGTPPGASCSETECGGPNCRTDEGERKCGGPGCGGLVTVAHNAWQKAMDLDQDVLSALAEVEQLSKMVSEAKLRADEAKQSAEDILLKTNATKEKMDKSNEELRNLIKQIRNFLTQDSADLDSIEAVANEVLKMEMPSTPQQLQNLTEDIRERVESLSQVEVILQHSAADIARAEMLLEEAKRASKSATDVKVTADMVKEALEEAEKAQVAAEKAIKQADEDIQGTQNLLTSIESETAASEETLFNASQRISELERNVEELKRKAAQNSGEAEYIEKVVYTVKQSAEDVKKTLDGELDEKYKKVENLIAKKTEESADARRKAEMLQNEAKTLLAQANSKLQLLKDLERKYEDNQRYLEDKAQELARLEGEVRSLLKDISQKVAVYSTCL
Chain of UniProt Q16363 (P11047 34-1609, chain 3 of 3, further chain): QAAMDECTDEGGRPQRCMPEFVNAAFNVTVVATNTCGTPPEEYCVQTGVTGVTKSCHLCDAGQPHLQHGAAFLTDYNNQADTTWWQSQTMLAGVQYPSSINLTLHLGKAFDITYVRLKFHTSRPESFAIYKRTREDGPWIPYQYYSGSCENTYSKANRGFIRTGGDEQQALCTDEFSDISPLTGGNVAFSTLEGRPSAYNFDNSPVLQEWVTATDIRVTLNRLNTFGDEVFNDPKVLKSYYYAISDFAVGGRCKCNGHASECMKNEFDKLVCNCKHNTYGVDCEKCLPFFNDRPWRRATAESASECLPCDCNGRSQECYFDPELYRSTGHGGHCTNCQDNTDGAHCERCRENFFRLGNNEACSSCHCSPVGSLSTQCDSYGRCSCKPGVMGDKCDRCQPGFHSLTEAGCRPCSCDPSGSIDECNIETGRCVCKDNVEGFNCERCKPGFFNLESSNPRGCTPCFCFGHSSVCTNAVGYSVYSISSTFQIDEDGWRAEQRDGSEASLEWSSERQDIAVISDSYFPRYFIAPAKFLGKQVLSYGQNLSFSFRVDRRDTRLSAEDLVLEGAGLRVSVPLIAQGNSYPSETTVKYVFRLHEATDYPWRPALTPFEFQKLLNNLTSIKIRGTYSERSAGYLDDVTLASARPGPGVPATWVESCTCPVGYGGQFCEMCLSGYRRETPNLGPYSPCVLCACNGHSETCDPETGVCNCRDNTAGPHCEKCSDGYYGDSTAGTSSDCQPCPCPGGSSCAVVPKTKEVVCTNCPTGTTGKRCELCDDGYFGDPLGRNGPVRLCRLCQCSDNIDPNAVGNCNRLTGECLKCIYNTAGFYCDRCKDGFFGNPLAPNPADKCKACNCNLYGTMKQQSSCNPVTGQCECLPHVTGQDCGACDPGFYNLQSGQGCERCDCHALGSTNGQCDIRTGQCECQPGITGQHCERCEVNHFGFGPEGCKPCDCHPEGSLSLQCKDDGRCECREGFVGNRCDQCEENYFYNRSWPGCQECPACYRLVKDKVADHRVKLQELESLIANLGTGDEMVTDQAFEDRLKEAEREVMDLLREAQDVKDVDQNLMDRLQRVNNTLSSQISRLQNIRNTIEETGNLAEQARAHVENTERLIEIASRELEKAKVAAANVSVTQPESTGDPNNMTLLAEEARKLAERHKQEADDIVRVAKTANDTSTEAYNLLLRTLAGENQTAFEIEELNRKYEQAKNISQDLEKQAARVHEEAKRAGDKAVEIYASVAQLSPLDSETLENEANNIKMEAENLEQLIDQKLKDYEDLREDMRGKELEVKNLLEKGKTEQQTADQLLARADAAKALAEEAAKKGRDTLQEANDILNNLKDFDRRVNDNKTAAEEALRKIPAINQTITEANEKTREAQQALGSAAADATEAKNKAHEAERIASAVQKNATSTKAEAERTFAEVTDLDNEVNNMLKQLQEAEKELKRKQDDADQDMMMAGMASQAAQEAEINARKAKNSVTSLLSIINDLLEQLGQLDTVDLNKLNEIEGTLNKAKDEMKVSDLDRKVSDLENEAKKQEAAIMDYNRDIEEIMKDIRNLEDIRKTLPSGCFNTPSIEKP

In general, Kd refers to the equilibrium constant for the complex coming apart. On to CD146-Fc (from UniProt P43121), for which the Kd was 27 nM.
